Results taken from patent US20130053549A1 (UCB, published 2013).
Changes are numbered by the printed parent chain. One block for each binder: values may come before it.

How the values were obtained:
[1] = target: T1, IL13 (UniProt P35225 35-146, limits assumed); test: SPR, Biacore 3000; sample captured by anti-human CH1 antibody, IL13 as analyte
T1 construct: also called IL13 (R&D 213IL)
Procedure: (§1) Covalent immobilisation of the capture antibody was achieved by standard amine coupling chemistry.
(§2) After each cycle, the capture surface was regenerated with 2×1 min injections of 40 mM HCl followed by 30 s of 5 mM NaOH. The flow rates used were 10 μl/min for capture, 30 μl/min for association and dissociation phases, and 10 μl/min for regeneration.
(§3) Kinetic parameters were determined by simultaneous global-fitting of the resulting sensorgrams to a standard 1:1 binding model using Biacore 3000 Evaluation Software v3.2

[2] = target: T2, Ox40/mFc (UniProt P43489 29-214); test: SPR, Biacore 3000; construct captured by anti-human CH1 antibody, 20 nM Ox40/mFc alone
T2 construct: Bought fusion protein; also called Ox40/mFc (AXXORA 1588)
T2 sequence (looked up): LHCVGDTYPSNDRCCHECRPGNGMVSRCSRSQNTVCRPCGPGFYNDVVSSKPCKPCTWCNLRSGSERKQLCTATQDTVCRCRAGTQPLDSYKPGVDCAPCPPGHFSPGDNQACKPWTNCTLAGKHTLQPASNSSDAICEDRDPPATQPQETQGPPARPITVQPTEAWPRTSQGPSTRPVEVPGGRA
Procedure: as §1, §2

[3] = target: T3, human serum albumin (human, UniProt P02768 25-609); test: SPR, Biacore 3000; construct captured by anti-human CH1 antibody, 50 nM HSA alone
T3 construct: Bought protein; also called HSA
Procedure: as §1, §2

[4] = target: T4, TNF (human, UniProt P01375 77-233); test: SPR, Biacore 3000; sample captured by anti-human CH1 antibody, TNF as analyte
T4 construct: also called TNF (Strathmann hTNFa); hTNFa
Procedure: as §1, §2, §3

[5] = target: T5, IL-6 (UniProt P05231 30-212, limits assumed); test: SPR, Biacore T100; sample captured by anti-human CH1 antibody, IL-6 as analyte
[6] = target: T3, human serum albumin; test: SPR, Biacore T100; sample captured by anti-human CH1 antibody, HSA as analyte, 1:1 fit
Procedure: as §1, §2
Kinetic parameters were determined by simultaneous global-fitting of the resulting sensorgrams to a standard 1:1 binding model using Biacore T100 Evaluation Software v2.0.1.

[7] = target: T3, human serum albumin; test: SPR, Biacore T100; sample captured by anti-human CH1 antibody, HSA as analyte
Procedure: as §1, §2
A blank flow-cell was used for reference subtraction and buffer-blank injections were included to subtract instrument noise and drift.

[8] = target: T5, IL-6; test: SPR, Biacore T100; sample captured by anti-human CH1 antibody, IL-6 as analyte; kinetics not given

- Affinity (fold loss against the parent) [1]: 2 fold
- Stoichiometry [1]: 0.88
- Response RU [2]: 39 RU
- Response RU [3]: 11 RU
B1: A26Fab-(3xG4S)-645dsFv-(3xG4S)-652dsFv (other)
heavy: EVQLVESGGGLVQPGGSLRLSCAASGFTFTNYGIHWIRQAPGKGLEWVASISPSGGLTYYRDSVKGRFTISRDDAKNSPYLQMNSLRAEDTAVYYCATGGEGIFDYWGQGTLVTVSSASTKGPSVFPLAPSSKSTSGGTAALGCLVKDYFPEPVTVSWNSGALTSGVHTFPAVLQSSGLYSLSSVVTVPSSSLGTQTYICNVNHKPSNTKVDKKVEPKSCSGGGGSGGGGSGGGGSEVQLLESGGGLVQPGGSLRLSCAVSGIDLSNYAINWVRQAPGKCLEWIGIIWASGTTFYATWAKGRFTISRDSTTVYLQMNSLRAEDTAVYYCARTVPGYSTAPYFDLWGQGTLVTVSSGGGGSGGGGSGGGGSQVTLKESGPVLVKPTETLTLTCTVSGFSLTNYHVQWIRQPPGKCLEWLGVMWSDGDTSFNSVLKSRLTISRDTSKSQVVLTMTNMDPVDTATYYCARDGTIAAMDYFDYWGQGTLVTVSS
light: DIQMTQSPSSLSASVGDRVTITCRATQSIYNALAWYQQKPGKAPKLLIYNANTLHTGVPSRFSASGSGTDSTLTISSLQPEDFATYYCQQYYDYPLTFGGGTKVEIKRTVAAPSVFIFPPSDEQLKSGTASVVCLLNNFYPREAKVQWKVDNALQSGNSQESVTEQDSKDSTYSLSSTLTLSKADYEKHKVYACEVTHQGLSSPVTKSFNRGECSGGGGSGGGGSGGGGSDIVMTQSPSSVSASVGDRVTITCQSSPSVWSNFLSWYQQKPGKAPKLLIYEASKLTSGVPSRFKGSGSGTDFTLTISSLQPEDFATYYCGGGYSSISDTTFGCGTKVEIKGGGGSGGGGSGGGGSDIQMTQSPSSLSASVGDRVTITCLASEDISNYLAWYQQKPGKAPKLLIYHTSRLQDGVPSRFSGSGSGTDFTLTISSLQPEDFATYYCQQGYRFPLTFGCGTKVEIKR
notes: Trispecific Fab-Fv-Fv (OX40, HSA, IL13); terminal 652 Fv with a disulfide (+DS read as dsFv); HEK293 supernatant; also called A26-645-652+DS; A26Fab-645Fv-652/870Fv

- Stoichiometry [1]: 0.95
- Response RU [2]: 42 RU
- Response RU [3]: 12 RU
B2: A26Fab-(3xG4S)-645dsFv-(3xG4S)-652Fv (other)
heavy: B1 heavy with C414A
light: DIQMTQSPSSLSASVGDRVTITCRATQSIYNALAWYQQKPGKAPKLLIYNANTLHTGVPSRFSASGSGTDSTLTISSLQPEDFATYYCQQYYDYPLTFGGGTKVEIKRTVAAPSVFIFPPSDEQLKSGTASVVCLLNNFYPREAKVQWKVDNALQSGNSQESVTEQDSKDSTYSLSSTLTLSKADYEKHKVYACEVTHQGLSSPVTKSFNRGECSGGGGSGGGGSGGGGSDIVMTQSPSSVSASVGDRVTITCQSSPSVWSNFLSWYQQKPGKAPKLLIYEASKLTSGVPSRFKGSGSGTDFTLTISSLQPEDFATYYCGGGYSSISDTTFGCGTKVEIKGGGGSGGGGSGGGGSDIQMTQSPSSLSASVGDRVTITCLASEDISNYLAWYQQKPGKAPKLLIYHTSRLQDGVPSRFSGSGSGTDFTLTISSLQPEDFATYYCQQGYRFPLTFGGGTKVEIK
notes: Trispecific Fab-Fv-Fv (OX40, HSA, IL13); terminal 652 Fv without a disulfide (-DS read as Fv); HEK293 supernatant; also called A26-645-652-DS; A26Fab-645Fv-652/870Fv

- Affinity (fold loss against the parent) [4]: 2 fold
- Stoichiometry [4]: 0.39
- Response RU [2]: 31 RU
- Response RU [3]: 11 RU
B3: A26Fab-(3xG4S)-645dsFv-(3xG4S)-870Fv (other)
heavy: EVQLVESGGGLVQPGGSLRLSCAASGFTFTNYGIHWIRQAPGKGLEWVASISPSGGLTYYRDSVKGRFTISRDDAKNSPYLQMNSLRAEDTAVYYCATGGEGIFDYWGQGTLVTVSSASTKGPSVFPLAPSSKSTSGGTAALGCLVKDYFPEPVTVSWNSGALTSGVHTFPAVLQSSGLYSLSSVVTVPSSSLGTQTYICNVNHKPSNTKVDKKVEPKSCSGGGGSGGGGSGGGGSEVQLLESGGGLVQPGGSLRLSCAVSGIDLSNYAINWVRQAPGKCLEWIGIIWASGTTFYATWAKGRFTISRDSTTVYLQMNSLRAEDTAVYYCARTVPGYSTAPYFDLWGQGTLVTVSSGGGGSGGGGSGGGGSEVQLVESGGGLVQPGGSLRLSCAASGYVFTDYGMNWVRQAPGKGLEWMGWINTYIGEPIYADSVKGRFTFSLDTSKSTAYLQMNSLRAEDTAVYYCARGYRSYAMDYWGQGTLVTVSS
light: DIQMTQSPSSLSASVGDRVTITCRATQSIYNALAWYQQKPGKAPKLLIYNANTLHTGVPSRFSASGSGTDSTLTISSLQPEDFATYYCQQYYDYPLTFGGGTKVEIKRTVAAPSVFIFPPSDEQLKSGTASVVCLLNNFYPREAKVQWKVDNALQSGNSQESVTEQDSKDSTYSLSSTLTLSKADYEKHKVYACEVTHQGLSSPVTKSFNRGECSGGGGSGGGGSGGGGSDIVMTQSPSSVSASVGDRVTITCQSSPSVWSNFLSWYQQKPGKAPKLLIYEASKLTSGVPSRFKGSGSGTDFTLTISSLQPEDFATYYCGGGYSSISDTTFGCGTKVEIKGGGGSGGGGSGGGGSDIQMTQSPSSLSASVGDRVTITCKASQNVGTNVAWYQQKPGKAPKALIYSASFLYSGVPYRFSGSGSGTDFTLTISSLQPEDFATYYCQQYNIYPLTFGQGTKVEIK
notes: Trispecific Fab-Fv-Fv (OX40, HSA, TNF); terminal 870 Fv without a disulfide (-DS read as Fv); HEK293 supernatant; also called A26-645-870-DS; A26Fab-645Fv-652/870Fv

- Stoichiometry [5]: 0.06
- Kd [6]: 0.0113 µM
- koff [6]: 0.000379 s⁻¹
- kon [6]: 33400 M⁻¹ s⁻¹
- Stoichiometry [7]: 0.39
- RU of binding [8]: 1 RU
B4: A26Fab 645Fv 1G4S 1189Fv (other)
heavy: EVQLVESGGGLVQPGGSLRLSCAASGFTFTNYGIHWIRQAPGKGLEWVASISPSGGLTYYRDSVKGRFTISRDDAKNSPYLQMNSLRAEDTAVYYCATGGEGIFDYWGQGTLVTVSSASTKGPSVFPLAPSSKSTSGGTAALGCLVKDYFPEPVTVSWNSGALTSGVHTFPAVLQSSGLYSLSSVVTVPSSSLGTQTYICNVNHKPSNTKVDKKVEPKSCSGGGGSGGGGSGGGGSEVQLLESGGGLVQPGGSLRLSCAVSGIDLSNYAINWVRQAPGKCLEWIGIIWASGTTFYATWAKGRFTISRDSTTVYLQMNSLRAEDTAVYYCARTVPGYSTAPYFDLWGQGTLVTVSSGGGGSEVQLVESGGGLVQPGGSLRLSCAASGFTFNDYDMAWVRQAPGKCLEWVASITPSGGGTYYRDSVKGRFTISRDNAKNSLYLQMNSLRAEDTAVYYCARHGYTLDYFEYWGQGTMVTVSS
light: DIQMTQSPSSLSASVGDRVTITCRATQSIYNALAWYQQKPGKAPKLLIYNANTLHTGVPSRFSASGSGTDSTLTISSLQPEDFATYYCQQYYDYPLTFGGGTKVEIKRTVAAPSVFIFPPSDEQLKSGTASVVCLLNNFYPREAKVQWKVDNALQSGNSQESVTEQDSKDSTYSLSSTLTLSKADYEKHKVYACEVTHQGLSSPVTKSFNRGECSGGGGSGGGGSGGGGSDIVMTQSPSSVSASVGDRVTITCQSSPSVWSNFLSWYQQKPGKAPKLLIYEASKLTSGVPSRFKGSGSGTDFTLTISSLQPEDFATYYCGGGYSSISDTTFGCGTKVEIKGGGGSDIQMTQSPSSLSASVGDRVTITCLASEGISNDLAWYQQKPGKAPKLLIYDATRLQDGVPSRFSGSGSGTDFTLTISSLQPEDFATYYCQQSYKYPWTFGCGTKLEIK
notes: Trispecific Fab-Fv-Fv (OX40, HSA, IL-6); second linker 1xG4S; HEK293 supernatant; also called A26Fab-645Fv-1189Fv; FabFvFv
